Consider one molecule from US11603409B2, “Humanized DR4 antibody gene having apoptosis-inducing activity and dual-acting chimeric antigen receptor T cell or natural killer cell therapeutic agent using same” (GENEUIN-TECH CO., LTD., priority 2017, dated 2023).

Experiment [1] relates to HEK293 cells which do not express DR4. Briefly: Apoptosis induction by secretory DR4 scFv protein, MTT method, HEK293 control cells. Type of experiment: cell-based, human. The conditions noted are these: HEK293 cells not expressing DR4; protein added to culture medium at low and high concentrations; FIG. 4(A). The procedure:
(§1) To this end, apoptosis-inducing effects of secretory humanized DR4 scFv antibody recombinant protein were analyzed using HeLa cells, a cervical cancer cell line expressing DR4 on the cell surface, and HCT-116 cells, a colon cancer cell line. […] Each of these three cells was inoculated in a culture dish and cultured overnight, and then the secretory humanized DR4 scFv antibody recombinant protein was added to the culture medium, and the degree of death of the cells during culturing was determined by MTT method (Cyto X™ Cell viability assay kit, LPS solution, Korea).
For orientation: Formazan colour is commonly taken as a measure of viable cells.

Experiment [2] concerns HeLa cells, a cervical cancer cell line expressing DR4. Briefly: Apoptosis induction by secretory DR4 scFv protein, MTT method, HeLa cells. Type of experiment: cell-based. Conditions: low and high concentrations, FIG. 4(B). The procedure:
as §1

The test system of experiment [3] is HCT-116 cells, a colon cancer cell line. As to the kind of experiment: Apoptosis induction by secretory DR4 scFv protein, MTT method, HCT-116 cells. Type of experiment: cell-based. Conditions: HCT-116 cells expressing DR4; low and high concentrations; FIG. 4(C). The procedure: as §1

B1: secretory humanized DR4 scFv antibody recombinant protein: Secreted humanized anti-DR4 scFv (SEQ ID NO: 1) with isoleucine zipper, Flag and His6 tags, expressed from pCMVFL-srkDR4 in HEK293 cells (protein)
scFv: EVQLVESGGGLVQPGGSLRLSCSASGFTFSSYSMQWVRQAPGKGLEYVAGIRSDGRYTNYGAAVKGRATISRDNSKNTVYLQMNSLRAEDTAVYYCAKGAYGYCGSTCAPYLGQIDAWGQGTLVTVSSGSTSGSGKPGSGEGSTKGSYELTQPPSVSVSPGQTVRITCSGGRYTYGWFQQKPGQAPVTVIYGNDKRPSNIPSRFSGSTSGSTVTLTISGVQAEDEADYYCGGADFSAGLFGGGTKLTVL
modifications: left off: small tags and cut ends; a dimerising Fc or GST
With B1, the “apoptosis effect (degree of death of the cells by MTT method)” value in experiment [1] is “not observed”; in experiment [2], “apoptosis increased in proportion to the concentration”; in experiment [3], “apoptosis increased in proportion to the concentration”.
